PMC10010325

Key:
[1] = molecular target: human CLDN18.2 (Claudin18.2), P56856-2; test: not named in legend (MFI read-out, antibody titration on CLDN18.2); settings: value read at the highest antibody concentration, log10(µg/mL) about 1.5; read off a plot
[2] = molecular target: Fcγ receptor type IIIA (CD16A), low affinity F158 (UniProt P08637); test: not named in legend (luminescence read-out, antibody titration on CD16A F158); settings: value read at the highest antibody concentration, log10(µg/mL) about -1; parent: est. 4400; read off a plot
Sequence of UniProt P08637 (P08637 17-254): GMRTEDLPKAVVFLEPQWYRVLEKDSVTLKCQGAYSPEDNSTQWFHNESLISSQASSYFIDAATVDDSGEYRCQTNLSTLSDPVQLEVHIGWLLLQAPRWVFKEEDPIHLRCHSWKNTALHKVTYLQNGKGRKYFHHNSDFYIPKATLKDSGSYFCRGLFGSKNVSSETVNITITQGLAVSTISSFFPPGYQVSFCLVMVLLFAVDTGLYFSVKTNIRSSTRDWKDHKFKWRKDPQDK

“ZL-1211 wild-type (WT) Fc Fc mutations for enhanced ADCC (substitutions not printed)” gave a response [1] of 35000 MFI and a response [2] of 5000 luminescence.
